The data set can be described thus: yeast display, Sf9 membrane polyspecificity reagent, FACS + sequencing; frameworks hold sequencing errors. A digest of the protocol:
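After 36–48 hours of galactose induction, yeast (Saccharomyces cerevisiae BJ5465) displaying a synthetic nanobody library were stained at 4 °C for 1 hour with 10% biotinylated, detergent-solubilized Sf9 membrane reagent. Streptavidin microbeads enriched the stained cells before FACS sorting into low and high (top ~1%) gates on anti-HA and streptavidin fluorescence. Each clone's polyreactivity label reflects its gate of origin.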
For the sequence “QVHLVESGGGLVQAGGSLRLSCAASGSIFTPYAMGWYRQAPGKERELVATISWSGGRTYYADSVKGRFTISRDNAKNTVYLQMNSLKPEDTAVYYCAARGYSSEYDYWGQGTQVTVSS”, the “polyreactivity (PSR sort gate)” value is “high polyreactivity”. In the case of “QVQLVESGGGLVQAGGSLRLSCAASGRIFQSYAMGWYRQAPGKERELVAGISTRGGNTYYADSVKGRFTISRDNAKNTVYLQMNSLKPEDTAVYYCAKRDYGRFASDYWGQGTQVTVSS” it was “high polyreactivity”; in that of “QVHLVESGGGLVQAGGSLRLSCAASGSIFFNNAMGWYRQPPGKERELVAAINYGNGSTYYADSVKGRFTISRDNAKNTVYLQMNSLKPEDTAVYYCNADYTGTRSDSVTPEYEYWGQGTQVTVSS”, “low polyreactivity”. In the case of “QVQLVESGGGLVQAGGSLRLSCAASGSIIVRYAMGWDRQAPGKERELVAAISKSGGSTHYADSVKGRFTISRDNAKNTVYLQMNSLKPEDTAVYYCAAVYYYRFTTYYYWGQGTQVTVSS” it was “high polyreactivity”; in that of “QVQLVESGGGLVQAGGSLRLSCAASGFTFQLYAMGWYRQAPGKERELVAAISSSGTSTYYADSVKGRFTISRDNAKNTVFLQMNSLKPEDTAVYYCAARGPYTYRRYGYWGQGTQVTVSS”, “high polyreactivity”; in that of “QVHLEESGGGLVQAGGSLRLSSAASGSNFDYNAMGWYRQAPGKERELVAAISRTGGRTYYADSVKGRFTISRDNAKNTVYLQMNSLKPEDTAVYYWNAVNRIGGGDYDYWGLGTQVTVSS”, “low polyreactivity”. On to “QVQLVESGGGLVQAGGSLRLSCAASGRIFAHYAMGWYRQAPGKERELVAAISSGGSTYYADSVKGRFTISRDNEKNTVYLQINSLKPEDTAVYYCAADYLYPPYYEFYYWGQGTQVTVSS”, for which the “polyreactivity (PSR sort gate)” value is “low polyreactivity”.

Consider “QVQLVESGGGLVQAGGSLRLSCAASGYTFVIYAMGSYRQAPGKERELVAAITTIGGRTYYADSVKGRFTISRDNAKNTVYLQMNSLKPEDTAVYYCAADIRSNRLYDGGYWGQGTQVTVSS”, for which the “polyreactivity (PSR sort gate)” value is “low polyreactivity”. In the case of “QVQLVESGGGLVQAGGSLRLSCAASGYIFSGYAMGWYRQAPGKERELVAAISSSGGRTYYADSVKGRFTISRDNAKNTVYLQMNSLKPEDTAVYYCAARIRTVAHVDYDYWGQGTQVTVSS” it was “high polyreactivity”; in that of “QVQLVESGGGLVQAGGSLRLSCAASGRTFAIYAMGWYRPAPGKEREFVAAISWSGGDTYYADSVKGRFTISRDNAKNTVYLQMNSLKPEDTAVYYCAARDYDYEGRDLQYELDYWGQGTQVTVSS”, “low polyreactivity”. In the case of “QVQLVESGGGLVQAGGSLRLSCAASGSTFFDYAMGWYRQAPGKVRELVAVISDGGTTTYADSVKGRFTISRDNAKNTVYLQMNSLKPEDTAVYYCAAENQDGLLVILGGYGYWGQGTQVTVSS” it was “low polyreactivity”; in that of “QVQLVESGGGLVQAAGSLRLSYAASGSTFVYNGMGSYRQAPAKERELVATISSTGSTNYADSVKGRFTISRDNAKNTVYLQMNSLKPEDTAVYYCATEYITYRAYDYWGQGTQVTVSS”, “low polyreactivity”; in that of “QVQLVESGGGLVQAGGSLRLSCAASGSIFSNNAMGWYRQAPGKEREFVAAIRGRGTRAYYADSVKGRFTISRDNAKNTVYLQMNSLKPEDTAVYYCAASARTYVQSGYWGQGTQVTVSS”, “high polyreactivity”. In the case of “QVQLVESGGGLVQAGGSLRISCAASGFIFWYYTMGRYIQAPGKERELVAAINSGGSTNYADSVKGRFTISRDNAKNTVYLQMNSLKPEDTAVYYCAALVCYSGELFYYWGQGTQVTVSS” it was “low polyreactivity”.

As to “QVQLVESGGGLVQAGGSLRLSCGASGFIFEGYSMGRYRQAPAKERELVAANTRGDSTNYADSVKGRFTISRDNAKNTVYLLMNSLKTEDTAVYYCAKTNLIGTDFTSPVQYYYWGQGTQVTVSS”, the “polyreactivity (PSR sort gate)” value is “low polyreactivity”. In the case of “QVQLVESGGGLVQAGGSLRLSCAASGSTFGYNGMGWYRQAPGKVRELVAAISGGARTYADSVKGRFTISRDNAKNTVYLQMNSLKPEDTAVYYCAADSPVSVTADDGYWGQGTQVTVSS” it was “low polyreactivity”.

With “QVQLVESGGGLVQAGGSLRLSCAASGRTFVYYAMGWYRPAPGKERELVAAISRSGSTYYADSVKGRFTISRDNAKNTVYLQMNSLKPEDTAVYYCARPGGPDRTSSPYPYPYGYWGQGTQVTVSS”, the “polyreactivity (PSR sort gate)” value is listed as “low polyreactivity”. In the case of “QVQLVESGGGLVQAGGSLRLSCAASGSIFRFYAMGWYRQAPGKERELVAAITSGGSTNYADSVKGRFTISRDNAKNTVYLQMNSLKPEDTAVYYCAAELVYFFIYDYWGKGTQVTVSS” it was “low polyreactivity”.

Regarding “QVQLVESGGGLVQAGGSLRLSCAASGRIFLINGMGWYRQAPGKERELVAVITQSGGTYYADSVKGRFTISRDNAKNTVYLQMNSLKPEDTAVYYCAASSYGASRGYWGQGTQVTVSS”, the “polyreactivity (PSR sort gate)” value is reported as “high polyreactivity”. In the case of “QVQLVESGGGLVQAGGSLRLSCAASGRIFTGYAMGWYRQAPGKERELVATIRSRGGGTYYADSVKGRFTISRDNAKNTVYLQMNSLKPEDTAVYYCAADDYYYYFGTRYGYWRQGTQVTVSS” it was “low polyreactivity”; in that of “QVQLVESGGGLVQAGGSLRLSCAASGSTFSLYTMGWYRQAPGKERELVAAITNGGSTKYADSVKGRFTISRDNAKNTVYLQMNSLKPEDTAVYYCAALYTHYYWIEYDYWGQGTQVTVSS”, “low polyreactivity”. For the sequence “QVQLEESGGGLVQAGGSLRLSCAASGFTLPLYAMGWYIQAPGKERELVAAISSGGGRTYYADSVKGRFTISPDYEKNSVYLQMNSLKPEDTAVYYCNVDRWWLGRYKFYYWGQGTQVTVSS”, the “polyreactivity (PSR sort gate)” value is “high polyreactivity”. In the case of “QVQLVESGGGLVQAGGSLRLSCAATGFTFSYYALGWYRQAPGKERELVAVISDRGGITYYADSVKGRFTISRDNAKNTVYLQMNSLKPEDTADYYCAAQNPRYNYRYYYWGHGTQVTVSS” it was “low polyreactivity”; in that of “QVQLVESGGGLVQAGGSLRLSCAASGGTFAGYAMGWYRQAPGKERELVAAIRWSGGRTYYADSVKGRFTISRDNAKNSVYLQMNSLKPEDTAVYYCAANGHGRVYFEMDYWGQGTQVTVSS”, “high polyreactivity”. Consider “QVQLLESGGGIVQAGGILRLSCAASGITIGWYAMGWYRPAPGKERELVASISSSGSTNYADSVKGLFTISRDNAKNTFYLQMNSMKPEDTAVYYCNKDYLLRHYYIYVIEGDYWGQGTQVTVSS”, for which the “polyreactivity (PSR sort gate)” value is “low polyreactivity”. In the case of “QVQLVESGGGLVQAGGSLRLSCAASGIIFRRYAMGWYRPEPGLVRELVAAISASGVRTYYADSVKGRFTISRDNAKNTVYFQMNSLKPEDTAVYYCAAATKRVEYEYWGQGTQVTVSS” it was “high polyreactivity”; in that of “QVQLVESGGGLVQAGGSLRLICAASGIIFGYYAMGWYRQAPGKERELVAAITSGASTDYADSVKGRFTISRDNAKNTFYLQMNSLKPEDTAVFFCNADTSASTYTFPFDYCGQGTQVTVSS”, “low polyreactivity”. Turning to “HVKLVESGGGLVQAGGCLRLSCAASGSNFFHNAMGWYRQAPGKERELVATISWRSASTYYADSVKGRFTISRDNAKKTVYLQMNSLKPEDTAVYYCAAKLHYRQYYYRYGYDYWGQGTQVTVSS”, the “polyreactivity (PSR sort gate)” value is “high polyreactivity”. In the case of “QVQLVESGGGIVQAGGSLRLSCAASGLILANNAMGRYRQAPGKETELVATISSSGGRTSYADSVKGRFTISRDNAKNTVYLQMNSLKPEDTAVYYCAKYCGRYPHGRSWYDYWGQGTQVTVSS” it was “high polyreactivity”; in that of “QVQLVESGGGLVQAGGSLRLSCAASGYIFGVYAMGWYRQAPGKERELVARITSGGSTNYADSVKGRFTISRDNAKNTVYLQMNSLKPEDTAVYYCAAAVGNTDREYDYWGQGTQVTVSS”, “low polyreactivity”; in that of “QVQLVESGGGLVQAGGSLRLSCAASGRIFDYYAMGSYRQAPGNERELVDAISSGDNTYYADSVKGRFTISRDNAKNTVYLQMNSLKPEDTAVYYCAADVSRFGYYGIGFYYWRQGTQVTVSS”, “low polyreactivity”.

For “QVQLVESGGGLVQAGGSLRLSCAASGFIFSGNAMGWYRQAPGKERELVATITTGGTTKYADSVKGRFTISRDNAKNTVYLQMNSLKPEDTAVYYFAKSWSYWYQYYYWGQGTQVTVSS”, the “polyreactivity (PSR sort gate)” value is “low polyreactivity”. For “QVQLVESGGGLVQAGGSLRLSCAASGFIFVPNTMGWYRQAPGKERELVAAITSVGSTNYADSVKGRFTISRDNAKNTVYLQMNSLKPEDTAVYYCPATLYYQYGGDYWGQGTQVTVSS”, the “polyreactivity (PSR sort gate)” value is “low polyreactivity”. In the case of “QVQLVESGGGLVQAGGSLRLSCAASGSIFTLNAMGWYRQAPGKEREFVAAITWSGGSTYYADSVKGRFTISRDNAKNTVYLQMNSLKPEDTAVYYCNVEPVDRWYYKYDYWGQGTQVTVSS” it was “low polyreactivity”. With “QVQLVESGGGIVQAGGSLRLSCAASGRTFKSNAMGWSIQAPGKERELVAAISRSGVRTDYADSVKGRFTISRDNANITVYLQMNSLKPEDTAVYYCADRTWNRRSPYDYWGQGTQVTVSS”, the “polyreactivity (PSR sort gate)” value is listed as “high polyreactivity”.

Regarding “QVQLVESGRGLVQAGGSLRLSCAASGSTFKRYVIGWYRQAPGKERELVAVINCSGGSTYADSVKGRYTISRDNAKNTVYLQMNSLKPEDTAVYYCAKYKYYRYWGQRTQVTVSS”, the “polyreactivity (PSR sort gate)” value was “high polyreactivity”.

Regarding “QVQLVESGGGLVQAGGSLRLSCAASGSIFGRNTMGWYRQAPGKERELVAAISSRGTSTYYADSVKGRFTISRDNAKNTVYLQMNSLKPEDTAVYYCAARVYPYNYWGQGTQVTVSS”, the “polyreactivity (PSR sort gate)” value is “high polyreactivity”.

Consider “QVQLVESGGGLVQAGGSLRLSCAASGYTFHGYAMGWYRQAPGKERELVAVITQRGGSTYYADSVKGRFTISRDNAKNTVYLQMNSLKPEDTAVYYCAARYAGPSPTDTGHDYWGQGTQVTVSS”, for which the “polyreactivity (PSR sort gate)” value was “low polyreactivity”. In the case of “QVQLVESGGGLVQAGGSLRLSCAASGRIFSSNGMGWYRQAPGKERELVAAIRTDGGSTYYADSVKGRFTISRDNAKNTVYLQMNSLKPEDTAVYYCNAQGAYTDVFDVYQRQPDDYWGQGTQVTVSS” it was “low polyreactivity”. In the case of “QVQLVESGGGLDQAGGSLRLSCAASGSISGYNAMGWYRQAPGKERELVASIRYTGARSYYADSGKGRFTISRDNAKNTVYLQMNSLKPEDTAVYYCAADSAYDVTSYGYWGQGTQVTVSS” it was “low polyreactivity”; in that of “QVQLVESGGGLVQAGGSLRLSCAASVSTFALYVMGWYRQAPGKERELVAAITDSSSTYYADSVKGRFTISRDNAKNTVYLQMNSLKPEDTAVYYCAARGRLIYAITYRNSPVYYWGQGTQVTVSS”, “low polyreactivity”.

Source of the values: the nanobody polyreactivity screen of Harvey et al. (2022).
